Source: paper PMC7367873, “Dissecting the sequence determinants for dephosphorylation by the catalytic subunits of phosphatases PP1 and PP2A” (Nature Communications, 2020)

B1: CDR2L (protein, UniProt Q86X02 1-465, looked up)
Cerebellar …: MRRAAGMEDFSAEEEESWYDQQDLEQDLHLAAELGKTLLERNKELEGSLQQMYSTNEEQVQEIEYLTKQLDTLRHVNEQHAKVYEQLDLTARDLELTNHRLVLESKAAQQKIHGLTETIERLQAQVEELQAQVEQLRGLEQLRVLREKRERRRTIHTFPCLKELCTSPRCKDAFRLHSSSLELGPRPLEQENERLQTLVGALRSQVSQERQRKERAEREYTAVLQEYSELERQLCEMEACRLRVQELEAELLELQQMKQAKTYLLGPDDHLAEALLAPLTQAPEADDPQPGRGDDLGAQDGVSSPAASPGHVVRKSCSDTALNAIVAKDPASRHAGNLTLHANSVRKRGMSILREVDEQYHALLEKYEELLSKCRQHGAGVRHAGVQTSRPISRDSSWRDLRGGEEGQGEVKAGEKSLSQHVEAVDKRLEQSQPEYKALFKEIFSRIQKTKADINATKVKTHSSK
B2: HSPD1 (protein, UniProt P10809 27-573, looked up)
60 kDa heat shock protein, …: AKDVKFGADARALMLQGVDLLADAVAVTMGPKGRTVIIEQSWGSPKVTKDGVTVAKSIDLKDKYKNIGAKLVQDVANNTNEEAGDGTTTATVLARSIAKEGFEKISKGANPVEIRRGVMLAVDAVIAELKKQSKPVTTPEEIAQVATISANGDKEIGNIISDAMKKVGRKGVITVKDGKTLNDELEIIEGMKFDRGYISPYFINTSKGQKCEFQDAYVLLSEKKISSIQSIVPALEIANAHRKPLVIIAEDVDGEALSTLVLNRLKVGLQVVAVKAPGFGDNRKNQLKDMAIATGGAVFGEEGLTLNLEDVQPHDLGKVGEVIVTKDDAMLLKGKGDKAQIEKRIQEIIEQLDVTTSEYEKEKLNERLAKLSDGVAVLKVGGTSDVEVNEKKDRVTDALNATRAAVEEGIVLGGGCALLRCIPALDSLTPANEDQKIGIEIIKRTLKIPAMTIAKNAGVEGSLIVEKIMQSSSEVGYDAMAGDFVNMVEKGIIDPTKVVRTALLDAAGVASLLTTAEVVVTEIPKEEKDPGMGAMGGMGGGMGGGMF
B3: UTP18 (protein, UniProt Q9Y5J1 1-556, looked up)
U3 small nucleolar …: MPPERRRRMKLDRRTGAKPKRKPGMRPDWKAGAGPGGPPQKPAPSSQRKPPARPSAAAAAIAVAAAEEERRLRQRNRLRLEEDKPAVERCLEELVFGDVENDEDALLRRLRGPRVQEHEDSGDSEVENEAKGNFPPQKKPVWVDEEDEDEEMVDMMNNRFRKDMMKNASESKLSKDNLKKRLKEEFQHAMGGVPAWAETTKRKTSSDDESEEDEDDLLQRTGNFISTSTSLPRGILKMKNCQHANAERPTVARISSVQFHPGAQIVMVAGLDNAVSLFQVDGKTNPKIQSIYLERFPIFKACFSANGEEVLATSTHSKVLYVYDMLAGKLIPVHQVRGLKEKIVRSFEVSPDGSFLLINGIAGYLHLLAMKTKELIGSMKINGRVAASTFSSDSKKVYASSGDGEVYVWDVNSRKCLNRFVDEGSLYGLSIATSRNGQYVACGSNCGVVNIYNQDSCLQETNPKPIKAIMNLVTGVTSLTFNPTTEILAIASEKMKEAVRLVHLPSCTVFSNFPVIKNKNISHVHTMDFSPRSGYFALGNEKGKALMYRLHHYSDF

How the values were obtained:
[1] = tested on: GFP-14-3-3β and its binding proteins; assay: GFP-14-3-3β co-IP with LC-MS/MS label-free quantification, untreated versus PP1c-treated; set-up: species or system human; details: PP1 vs untreated; LFQ intensities, replicates 1-3
GFP-14-3-3β = GFP-14-3-3β co-IP with LC-MS/MS, untreated GFP-14-3-3β versus GFP control (14-3-3 interactome); format: binding, human; details: untreated vs GFP; LFQ intensities, replicates 1-3

Molecule | Difference (log2), PP1 vs untreated [1] [log2] | Difference (log2), untreated vs GFP (GFP-14-3-3β) [log2]
B1 | -0.8285 | 4.028
B2 | -0.8196 | -0.2089
B3 | -0.8415 | 2.416
